Target: 6xHis-tagged mTOR fragment ∆N-FAT-M (human) (UniProt P42345)
Assay: BLI; BLItz; His-tagged mTOR fragments (1 µM) immobilised on Ni-NTA biosensors, tagless RHEB as analyte (0.5 and 1 µM, or 0.05 and 0.1 µM for ∆ATP), no GTP; 10 mM HEPES pH 7.4, 100 mM NaCl, 0.02% Tween-20, 5 mg/mL BSA, 25 °C; global 1:1 fit

In the case of “6xHis-tag cleaved-RHEB (from UniProt Q15382 1-169) (natural protein)”, the Kd is reported as 1260 nM.

Source: article PMC8395731
